{"source": "paper PMC5988928", "about": "“An alkaline and surfactant-tolerant lipase from Trichoderma lentiforme ACCC30425 with high application potential in the detergent industry” (AMB Express, 2018)", "proteins": {"B1": {"name": "TlLipA (Trichoderma sp.) (protein)", "chain": "AQGQVNVTIPSGNIMGSSVEDVEFFKGIPFADPPIGELRFKPPQTLSTHLGDFDATKKAKLCSQGPVFTVSSNPQVAPFALKAERESFGNPVPPENESEDCLTVTIHRPAGTEAGDDLPVLFYIFGGGFVIGGTSAAINDPTVLVQTGIDLGKPFIFAAVNYRVGGWGFMPGAEILRDGSANAGLLDQRKGLEWVADNIAAFGGDPSKVTIWGQSSGSISVFEQLVLYDGDNTYNGNPLFRGAIMNSGSVTPVDPVDSAKPQALYDHVVRVANCEGDDSLDCLRRLPNDHFAAAANSIPGLISYESLALSYLPRPDGEVLTASPHVLAREGKFPAVPMILASQEDEGTLFSFFQGDMGTTDIITDYLNSLYFTNTDRSLVKSFVETYSERLEDGSPYRTGDSKDLFYYPGKKRIASILGDIVFTLVRRWTLETIAEVSPETALWSSFASYNYKPLDIFGLGTKHGSDTEVFFARNNSDFPSITGRTYYINFVYNGDPNEGLDVNVTWLGWKEDRQLLWYNATENGYLADNFRNGSYNFIKEHIDSLIF", "notes": "secreted from Pichia pastoris GS115 (pPIC9, alpha-factor signal), no tag told; N-terminus AQGQVNVTIP from primer"}}, "experiment_in_all_cases": "purified protein", "type_in_all_cases": "biochemical, Trichoderma sp.", "details_in_all_cases": "pH 9.5, 50 °C, 10 min, Tris-HCl", "key": {"purified protein [1]": {"substrate": "CCCC(=O)Oc1ccc([N+](=O)[O-])cc1"}, "purified protein [2]": {"substrate": "CCCCCCCC(=O)Oc1ccc([N+](=O)[O-])cc1"}, "purified protein [3]": {"substrate": "CCCCCCCCCC(=O)Oc1ccc([N+](=O)[O-])cc1"}, "purified protein [4]": {"substrate": "CCCCCCCCCCCC(=O)Oc1ccc([N+](=O)[O-])cc1"}, "purified protein [5]": {"substrate": "CCCCCCCCCCCCCC(=O)Oc1ccc([N+](=O)[O-])cc1"}, "purified protein [6]": {"substrate": "CCCCCCCCCCCCCCCC(=O)Oc1ccc([N+](=O)[O-])cc1"}}}
{"protein": "B1", "values": [{"measurement": "Km", "setting": "purified protein [1]", "result": "400 ± 70", "unit": "µM"}, {"measurement": "Vmax", "setting": "purified protein [1]", "result": 12.2, "unit": "µmol/min/mg"}, {"measurement": "kcat", "setting": "purified protein [1]", "result": "12.2 ± 0.8", "unit": "s⁻¹"}, {"measurement": "kcat/Km", "setting": "purified protein [1]", "result": 30700, "unit": "M⁻¹ s⁻¹"}, {"measurement": "Km", "setting": "purified protein [2]", "result": "670 ± 230", "unit": "µM"}, {"measurement": "Vmax", "setting": "purified protein [2]", "result": 27.3, "unit": "µmol/min/mg"}, {"measurement": "kcat", "setting": "purified protein [2]", "result": "27.4 ± 4.4", "unit": "s⁻¹"}, {"measurement": "kcat/Km", "setting": "purified protein [2]", "result": 41000, "unit": "M⁻¹ s⁻¹"}, {"measurement": "Km", "setting": "purified protein [3]", "result": "350 ± 70", "unit": "µM"}, {"measurement": "Vmax", "setting": "purified protein [3]", "result": 12.5, "unit": "µmol/min/mg"}, {"measurement": "kcat", "setting": "purified protein [3]", "result": "12.5 ± 0.7", "unit": "s⁻¹"}, {"measurement": "kcat/Km", "setting": "purified protein [3]", "result": 35800, "unit": "M⁻¹ s⁻¹"}, {"measurement": "Km", "setting": "purified protein [4]", "result": "1590 ± 420", "unit": "µM"}, {"measurement": "Vmax", "setting": "purified protein [4]", "result": 16.8, "unit": "µmol/min/mg"}, {"measurement": "kcat", "setting": "purified protein [4]", "result": "16.8 ± 2.4", "unit": "s⁻¹"}, {"measurement": "kcat/Km", "setting": "purified protein [4]", "result": 10600, "unit": "M⁻¹ s⁻¹"}, {"measurement": "Km", "setting": "purified protein [5]", "result": "3290 ± 1210", "unit": "µM"}, {"measurement": "Vmax", "setting": "purified protein [5]", "result": 4.3, "unit": "µmol/min/mg"}, {"measurement": "kcat", "setting": "purified protein [5]", "result": "4.3 ± 1", "unit": "s⁻¹"}, {"measurement": "kcat/Km", "setting": "purified protein [5]", "result": 1320, "unit": "M⁻¹ s⁻¹"}, {"measurement": "Km", "setting": "purified protein [6]", "result": "4220 ± 1280", "unit": "µM"}, {"measurement": "Vmax", "setting": "purified protein [6]", "result": 4.8, "unit": "µmol/min/mg"}, {"measurement": "kcat", "setting": "purified protein [6]", "result": "4.8 ± 1", "unit": "s⁻¹"}, {"measurement": "kcat/Km", "setting": "purified protein [6]", "result": 1140, "unit": "M⁻¹ s⁻¹"}]}
